In publication PMC11959585, “Modular Nanoparticle Platform for Solution-Phase Optical Sensing of Protein–Protein Interactions” (ACS Applied Optical Materials, 2025):

Assays:
Settings in all cases: both partners purified
His-tagged PEX5 (1–113) [1] = target: T1, His-tagged PEX5 (1–113) (UniProt P50542 1-113); test: solution-phase LSPR peak shift of nanoparticles (UV–vis); binding curve near equilibrium: PEX14 (16–80) titrated onto hPEX5 construct (0.015 μM) immobilised on nanobiosensors (~0.025 nM); 20 mM sodium phosphate, 100 mM NaCl, 0.025 wt % Tween 20, pH 7.9; fit with the Hill–Waud equation
T1 construct: cytosolic peroxisomal targeting protein PEX5, stretch of the intrinsically disordered N-terminal domain, residues 1-113; His-tagged samples were made with the pETM10 vector; also called hPEX5 (1–113); source: E. coli BL21 (DE3), purified (Ni-NTA, SEC); not shown: His6, N-terminal, kept

[2] = target: T2, His-tagged PEX5 (110–230) (UniProt P50542 110-230); test: solution-phase LSPR peak shift of nanoparticles (UV–vis); kinetic: peak position scanned every 20–30 s for 25 min after manual addition of PEX14 to immobilised hPEX5 (PEX14:PEX5 10:1 for 1–113), exponential fit; ka and kd derived from kobs and KD; 20 mM sodium phosphate, 100 mM NaCl, 0.025 wt % Tween 20, pH 7.9
T2 construct: cytosolic peroxisomal targeting protein PEX5, stretch of the intrinsically disordered N-terminal domain, residues 110-230; His-tagged samples were made with the pETM10 vector; also called hPEX5 (110–230); source: E. coli BL21 (DE3), purified (Ni-NTA, SEC); not shown: His6, N-terminal, kept

His-tagged PEX5 (1–113) [3] = target: T1, His-tagged PEX5 (1–113); test: as above

- Kd (His-tagged PEX5 (1–113) [1]): 289 nM
- ka near the first inflection point [2]: 12400 M^–1 s^–1
- kd near the first inflection point [2]: 0.00212 s^–1
- koff (His-tagged PEX5 (1–113) [3]): 0.00262 s⁻¹
- kon (His-tagged PEX5 (1–113) [3]): 9060 M⁻¹ s⁻¹
B1: PEX14 (16–80) (domain or fragment, UniProt O75381 16-80, looked up)
chain: TPGSENVLPREPLIATAVKFLQNSRVRQSPLATRRAFLKKKGLTDEEIDMAFQQSGTAADEPSSL
notes: peroxisomal membrane-associated import protein PEX14, globular N-terminal domain, residues 16-80; also called globular N-terminal domain of PEX14; source: E. coli BL21 (DE3), purified (Ni-NTA, TEV cleavage, reverse Ni column, SEC); not shown: His6, N-terminal, cleaved
